This test deals with HA 2NΔ peptide-DR1 complex (human | influenza A virus) (UniProt P03437).

Take “soluble recombinant HLA-DM (DMA*0101/DMB*0101) (complex)”: the kcat, fold change against the full HA peptide complex turned out to be 5 fold.

(Values after article PMC7062162.)
